B1: ANKRD40 (parent)
chain: VCCCELGVNPDQVEKIRKLPNTLL

Variants of: B1
Assay: protein stability index of a GFP-peptide fusion (GPS, HEK-293T) (PSI 1-6); higher = more stable
Conditions: c terminus: a fixed tail appended
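Further: lentivirally expressed fusions sorted by FACS into six bins by GFP to DsRed ratio, PSI derived from sequencing read proportions per bin multiplied by bin number.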

| Variant | protein stability index |
| --- | --- |
| VCCEELGVNPDQVEKIRKLPNTLL | 3 |
| VCCHELGVNPDQVEKIRKLPNTLL | 2.27 |
| VCCDELGVNPDQVEKIRKLPNTLL | 3.17 |
| VCCLELGVNPDQVEKIRKLPNTLL | 1.73 |
| VCCRELGVNPDQVEKIRKLPNTLL | 2.43 |
| VCCWELGVNPDQVEKIRKLPNTLL | 1.98 |
| VCCSELGVNPDQVEKIRKLPNTLL | 2.84 |
| VCCFELGVNPDQVEKIRKLPNTLL | 1.83 |
| VCCQELGVNPDQVEKIRKLPNTLL | 2.72 |
| VCCKELGVNPDQVEKIRKLPNTLL | 2.22 |
| VCCYELGVNPDQVEKIRKLPNTLL | 1.85 |
| VCCMELGVNPDQVEKIRKLPNTLL | 2.16 |
| VCCVELGVNPDQVEKIRKLPNTLL | 2.74 |
| VCCTELGVNPDQVEKIRKLPNTLL | 2.76 |
| VCCAELGVNPDQVEKIRKLPNTLL | 1.87 |
| VCCGELGVNPDQVEKIRKLPNTLL | 2.12 |
| VCCIELGVNPDQVEKIRKLPNTLL | 2.28 |
| VCCNELGVNPDQVEKIRKLPNTLL | 2.41 |
| VCGCELGVNPDQVEKIRKLPNTLL | 2.19 |
| VCHCELGVNPDQVEKIRKLPNTLL | 2.18 |
| VCRCELGVNPDQVEKIRKLPNTLL | 2.1 |
| VCKCELGVNPDQVEKIRKLPNTLL | 2.23 |
| VCACELGVNPDQVEKIRKLPNTLL | 2.42 |
| VCNCELGVNPDQVEKIRKLPNTLL | 1.82 |

| Variant | protein stability index |
| --- | --- |
| VCICELGVNPDQVEKIRKLPNTLL | 1.69 |
| VCSCELGVNPDQVEKIRKLPNTLL | 2.09 |
| VCPCELGVNPDQVEKIRKLPNTLL | 1.97 |
| VCVCELGVNPDQVEKIRKLPNTLL | 2.53 |
| VCQCELGVNPDQVEKIRKLPNTLL | 1.96 |
| VCTCELGVNPDQVEKIRKLPNTLL | 2.38 |
| VCWCELGVNPDQVEKIRKLPNTLL | 1.81 |
| VCLCELGVNPDQVEKIRKLPNTLL | 2.03 |
| VCMCELGVNPDQVEKIRKLPNTLL | 2.29 |
| VCDCELGVNPDQVEKIRKLPNTLL | 2.31 |
| VCFCELGVNPDQVEKIRKLPNTLL | 1.24 |
| VCECELGVNPDQVEKIRKLPNTLL | 2.77 |
| VCYCELGVNPDQVEKIRKLPNTLL | 2.27 |
| VCCCELGVDPDQVEKIRKLPNTLL | 2.01 |
| VCCCELGVAPDQVEKIRKLPNTLL | 1.47 |
| VCCCELGVCPDQVEKIRKLPNTLL | 1.66 |
| VCCCELGVIPDQVEKIRKLPNTLL | 1.88 |
| VCCCELGVKPDQVEKIRKLPNTLL | 2.33 |
| VCCCELGVHPDQVEKIRKLPNTLL | 1.83 |
| VCCCELGVGPDQVEKIRKLPNTLL | 1.96 |
| VCCCELGVEPDQVEKIRKLPNTLL | 1.7 |
| VCCCELGVMPDQVEKIRKLPNTLL | 2.23 |
| VCCCELGVLPDQVEKIRKLPNTLL | 1.97 |
| VCCCETGVNPDQVEKIRKLPNTLL | 2.13 |

| Variant | protein stability index |
| --- | --- |
| VCCCEEGVNPDQVEKIRKLPNTLL | 2.76 |
| VCCCECGVNPDQVEKIRKLPNTLL | 2.06 |
| VCCCEGGVNPDQVEKIRKLPNTLL | 2.87 |
| VCCCEAGVNPDQVEKIRKLPNTLL | 2 |
| VCCCERGVNPDQVEKIRKLPNTLL | 2.3 |
| VCCCEYGVNPDQVEKIRKLPNTLL | 1.87 |
| VCCCESGVNPDQVEKIRKLPNTLL | 2.68 |
| VCCCEDGVNPDQVEKIRKLPNTLL | 3.28 |
| VCCCEVGVNPDQVEKIRKLPNTLL | 2.2 |
| VCCCEHGVNPDQVEKIRKLPNTLL | 2.15 |
| VCCCENGVNPDQVEKIRKLPNTLL | 2.47 |
| VCCCEKGVNPDQVEKIRKLPNTLL | 3.1 |
| VCCCEQGVNPDQVEKIRKLPNTLL | 3.27 |
| VCCCEFGVNPDQVEKIRKLPNTLL | 1.4 |
| VCCCEIGVNPDQVEKIRKLPNTLL | 1.8 |
| VCCCEWGVNPDQVEKIRKLPNTLL | 1.66 |
| VCCCEMGVNPDQVEKIRKLPNTLL | 2.3 |
| VCCCELGGNPDQVEKIRKLPNTLL | 2.33 |
| VCCCELGENPDQVEKIRKLPNTLL | 2.39 |
| VCCCELGNNPDQVEKIRKLPNTLL | 1.99 |
| VCCCELGTNPDQVEKIRKLPNTLL | 1.62 |
| VCCCELGHNPDQVEKIRKLPNTLL | 2.17 |
| VCCCELGINPDQVEKIRKLPNTLL | 1.79 |
| VCCCELGANPDQVEKIRKLPNTLL | 1.86 |

| Variant | protein stability index |
| --- | --- |
| VCCCELGCNPDQVEKIRKLPNTLL | 1.86 |
| VCCCELGFNPDQVEKIRKLPNTLL | 1.3 |
| VCCCELGRNPDQVEKIRKLPNTLL | 1.81 |
| VCCCELGKNPDQVEKIRKLPNTLL | 2.2 |
| VCCCELGDNPDQVEKIRKLPNTLL | 2.37 |
| VCCCELGYNPDQVEKIRKLPNTLL | 1.77 |
| VCCCELGWNPDQVEKIRKLPNTLL | 1.58 |
| VCCCELGLNPDQVEKIRKLPNTLL | 1.34 |
| VCCCELGPNPDQVEKIRKLPNTLL | 1.79 |
| VCCCELGQNPDQVEKIRKLPNTLL | 1.85 |
| VCCCELGSNPDQVEKIRKLPNTLL | 2.4 |
| SCCCELGVNPDQVEKIRKLPNTLL | 2.4 |
| GCCCELGVNPDQVEKIRKLPNTLL | 1.68 |
| WCCCELGVNPDQVEKIRKLPNTLL | 1.79 |
| NCCCELGVNPDQVEKIRKLPNTLL | 2.31 |
| LCCCELGVNPDQVEKIRKLPNTLL | 2.04 |
| QCCCELGVNPDQVEKIRKLPNTLL | 2.19 |
| ECCCELGVNPDQVEKIRKLPNTLL | 2.83 |
| DCCCELGVNPDQVEKIRKLPNTLL | 3.1 |
| ACCCELGVNPDQVEKIRKLPNTLL | 1.66 |
| TCCCELGVNPDQVEKIRKLPNTLL | 1.71 |
| CCCCELGVNPDQVEKIRKLPNTLL | 1.96 |
